In US20100323906:

System: XhoI
Test: cleavage_in_vitro
Conditions: 5'-dithiol on upper strand, tethered to 20 nm Au nanoparticle; rate constant at 3.5 nM enzyme (1.5e-3 s-1 at 350 pM); Mg2+ required, inhibited by 10 mM EDTA

**Q.** Which activity does the source give for “AAAGGATCCAAGCTTGAATTCCTCGAGAGATCTGTCGACGATATCGGTACCAAA (double strand) [54-bp ruler dsDNA]” here?
**A.** 0.0058 s⁻¹
